Legend:
cplx4_human CPLX4 = molecular target: T1, cplx4_human CPLX4 (UniProt Q7Z7G2)
T1 sequence: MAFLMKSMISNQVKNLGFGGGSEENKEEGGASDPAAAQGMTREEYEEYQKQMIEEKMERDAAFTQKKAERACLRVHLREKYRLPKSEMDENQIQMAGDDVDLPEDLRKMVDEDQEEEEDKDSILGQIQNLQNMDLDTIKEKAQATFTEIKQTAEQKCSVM

gpx8_human GPX8 = molecular target: T2, gpx8_human GPX8 (UniProt Q8TED1)
T2 sequence: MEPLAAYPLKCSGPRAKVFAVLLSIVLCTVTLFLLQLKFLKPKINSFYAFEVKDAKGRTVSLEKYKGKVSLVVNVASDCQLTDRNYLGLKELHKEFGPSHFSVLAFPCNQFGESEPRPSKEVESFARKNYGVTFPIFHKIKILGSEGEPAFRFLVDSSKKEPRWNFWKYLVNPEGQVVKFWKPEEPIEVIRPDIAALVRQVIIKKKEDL

cisd2_human CISD2 = molecular target: T3, cisd2_human CISD2 (UniProt Q8N5K1)
T3 sequence: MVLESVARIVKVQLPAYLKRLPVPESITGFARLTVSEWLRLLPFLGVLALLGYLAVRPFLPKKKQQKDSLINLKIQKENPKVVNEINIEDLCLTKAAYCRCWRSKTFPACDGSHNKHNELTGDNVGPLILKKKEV

ar13b_human ARL13B = ar13b_human ARL13B (UniProt Q3SXY8)
ssmm1_human SSMEM1 = molecular target: T4, ssmm1_human SSMEM1 (UniProt Q8WWF3)
T4 sequence: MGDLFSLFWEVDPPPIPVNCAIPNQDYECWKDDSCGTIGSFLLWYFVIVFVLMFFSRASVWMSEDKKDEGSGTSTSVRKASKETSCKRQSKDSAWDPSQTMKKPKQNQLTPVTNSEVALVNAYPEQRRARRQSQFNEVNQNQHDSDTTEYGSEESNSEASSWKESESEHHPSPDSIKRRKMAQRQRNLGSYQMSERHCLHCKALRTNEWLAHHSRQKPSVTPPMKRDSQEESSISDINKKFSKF

tmem9_human TMEM9 = molecular target: T5, tmem9_human TMEM9 (UniProt Q9P0T7)
T5 sequence: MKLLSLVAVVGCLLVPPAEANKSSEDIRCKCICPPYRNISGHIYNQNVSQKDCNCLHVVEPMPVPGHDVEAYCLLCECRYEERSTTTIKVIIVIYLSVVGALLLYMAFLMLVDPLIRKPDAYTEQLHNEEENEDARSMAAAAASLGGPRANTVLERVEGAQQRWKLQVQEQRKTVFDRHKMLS

gp152_human GPR152 = gp152_human GPR152 (UniProt Q8TDT2)
kash5_human KASH5 = molecular target: T6, kash5_human KASH5 (UniProt Q8N6L0)
T6 sequence: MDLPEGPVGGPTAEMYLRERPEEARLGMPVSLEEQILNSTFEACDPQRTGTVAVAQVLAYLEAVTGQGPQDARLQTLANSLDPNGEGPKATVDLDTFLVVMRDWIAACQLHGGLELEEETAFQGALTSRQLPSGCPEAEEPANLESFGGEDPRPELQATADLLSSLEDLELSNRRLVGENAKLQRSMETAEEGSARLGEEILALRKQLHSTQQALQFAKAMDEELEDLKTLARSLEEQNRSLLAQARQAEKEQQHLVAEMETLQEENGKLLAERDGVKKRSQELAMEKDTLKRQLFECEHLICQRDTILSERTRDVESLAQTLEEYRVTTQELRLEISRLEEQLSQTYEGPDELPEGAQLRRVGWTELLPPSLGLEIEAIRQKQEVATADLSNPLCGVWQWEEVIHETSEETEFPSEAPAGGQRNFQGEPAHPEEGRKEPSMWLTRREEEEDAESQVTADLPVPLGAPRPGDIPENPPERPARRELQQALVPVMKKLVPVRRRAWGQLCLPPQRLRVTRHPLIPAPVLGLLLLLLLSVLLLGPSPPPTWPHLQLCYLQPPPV

lrc4c_human LRRC4C = molecular target: T7, lrc4c_human LRRC4C (UniProt Q9HCJ2)
T7 sequence: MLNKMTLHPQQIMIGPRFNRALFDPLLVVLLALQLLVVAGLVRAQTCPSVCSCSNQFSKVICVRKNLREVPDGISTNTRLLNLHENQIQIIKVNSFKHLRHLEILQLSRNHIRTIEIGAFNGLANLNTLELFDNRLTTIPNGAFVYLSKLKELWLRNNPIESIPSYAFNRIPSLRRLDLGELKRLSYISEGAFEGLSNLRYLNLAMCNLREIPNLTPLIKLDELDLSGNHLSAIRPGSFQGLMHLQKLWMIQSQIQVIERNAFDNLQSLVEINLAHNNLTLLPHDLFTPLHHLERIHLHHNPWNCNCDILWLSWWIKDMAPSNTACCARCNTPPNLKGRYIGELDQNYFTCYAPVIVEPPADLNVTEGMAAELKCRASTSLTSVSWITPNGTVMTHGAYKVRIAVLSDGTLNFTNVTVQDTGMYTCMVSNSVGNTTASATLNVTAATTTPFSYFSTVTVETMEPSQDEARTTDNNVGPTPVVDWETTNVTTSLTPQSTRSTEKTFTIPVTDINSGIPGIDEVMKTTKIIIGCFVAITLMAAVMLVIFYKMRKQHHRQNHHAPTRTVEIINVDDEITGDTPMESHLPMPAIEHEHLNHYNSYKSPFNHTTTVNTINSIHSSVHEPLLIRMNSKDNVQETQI

ergi3_human ERGIC3 = ergi3_human ERGIC3 (UniProt Q9Y282)
amgo1_human AMIGO1 = molecular target: T8, amgo1_human AMIGO1 (UniProt Q86WK6)
T8 sequence: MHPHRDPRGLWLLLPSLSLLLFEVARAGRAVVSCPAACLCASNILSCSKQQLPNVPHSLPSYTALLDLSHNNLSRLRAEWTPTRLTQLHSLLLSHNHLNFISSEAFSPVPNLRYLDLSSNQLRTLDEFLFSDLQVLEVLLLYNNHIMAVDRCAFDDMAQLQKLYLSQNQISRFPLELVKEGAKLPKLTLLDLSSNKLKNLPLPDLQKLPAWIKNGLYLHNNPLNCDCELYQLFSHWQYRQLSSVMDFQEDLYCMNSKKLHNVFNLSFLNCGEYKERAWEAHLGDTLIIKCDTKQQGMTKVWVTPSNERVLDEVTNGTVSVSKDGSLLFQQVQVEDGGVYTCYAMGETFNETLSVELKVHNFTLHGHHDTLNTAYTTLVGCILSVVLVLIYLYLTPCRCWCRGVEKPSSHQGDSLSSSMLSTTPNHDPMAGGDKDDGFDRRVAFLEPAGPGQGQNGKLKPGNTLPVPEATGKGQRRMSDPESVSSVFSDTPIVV

Sequence of ar13b_human ARL13B (Q3SXY8 whole entry): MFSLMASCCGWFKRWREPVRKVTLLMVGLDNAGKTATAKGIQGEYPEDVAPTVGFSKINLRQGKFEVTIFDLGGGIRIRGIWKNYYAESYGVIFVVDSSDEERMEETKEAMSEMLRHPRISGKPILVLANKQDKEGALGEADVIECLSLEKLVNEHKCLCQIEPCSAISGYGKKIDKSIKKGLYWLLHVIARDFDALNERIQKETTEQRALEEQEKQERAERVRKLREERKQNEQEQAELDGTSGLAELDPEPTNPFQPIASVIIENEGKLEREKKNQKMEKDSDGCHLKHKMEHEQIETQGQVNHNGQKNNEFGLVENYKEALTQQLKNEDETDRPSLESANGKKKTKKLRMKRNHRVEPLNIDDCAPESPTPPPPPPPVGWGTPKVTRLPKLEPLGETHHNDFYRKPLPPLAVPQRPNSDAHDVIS
Sequence of gp152_human GPR152 (Q8TDT2 whole entry): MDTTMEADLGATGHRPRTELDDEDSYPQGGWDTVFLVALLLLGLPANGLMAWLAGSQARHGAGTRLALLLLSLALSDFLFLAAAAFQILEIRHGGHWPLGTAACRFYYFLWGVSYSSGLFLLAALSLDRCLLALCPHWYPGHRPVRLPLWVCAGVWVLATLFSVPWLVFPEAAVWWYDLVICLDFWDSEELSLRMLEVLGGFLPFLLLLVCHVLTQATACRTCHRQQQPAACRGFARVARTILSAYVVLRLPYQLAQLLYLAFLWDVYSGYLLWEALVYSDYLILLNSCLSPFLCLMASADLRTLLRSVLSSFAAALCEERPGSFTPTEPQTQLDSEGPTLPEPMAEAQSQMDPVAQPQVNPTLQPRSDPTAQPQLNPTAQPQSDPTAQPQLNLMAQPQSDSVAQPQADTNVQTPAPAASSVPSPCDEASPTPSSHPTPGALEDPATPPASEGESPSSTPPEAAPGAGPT
Sequence of ergi3_human ERGIC3 (Q9Y282 whole entry): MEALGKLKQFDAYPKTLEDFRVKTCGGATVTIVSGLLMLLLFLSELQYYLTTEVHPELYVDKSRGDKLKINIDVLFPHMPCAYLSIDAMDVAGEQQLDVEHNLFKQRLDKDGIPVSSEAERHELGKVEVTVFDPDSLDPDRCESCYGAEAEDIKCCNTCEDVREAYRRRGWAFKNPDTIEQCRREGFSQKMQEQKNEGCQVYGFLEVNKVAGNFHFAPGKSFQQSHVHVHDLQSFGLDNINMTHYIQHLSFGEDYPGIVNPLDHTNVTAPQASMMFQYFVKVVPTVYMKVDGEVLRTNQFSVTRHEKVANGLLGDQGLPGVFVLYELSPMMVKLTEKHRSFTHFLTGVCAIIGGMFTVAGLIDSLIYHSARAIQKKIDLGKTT

Acyltransferase PGAP2 (Homo sapiens) (from UniProt Q9UHJ9-5) T160I
effect of a mutation on the interaction (cplx4_human CPLX4): with no effect
effect of a mutation on the interaction (gpx8_human GPX8): with no effect
effect of a mutation on the interaction (cisd2_human CISD2): with no effect
effect of a mutation on the interaction (ar13b_human ARL13B): with no effect
effect of a mutation on the interaction (ssmm1_human SSMEM1): with no effect
effect of a mutation on the interaction (tmem9_human TMEM9): with no effect
effect of a mutation on the interaction (gp152_human GPR152): with no effect
effect of a mutation on the interaction (kash5_human KASH5): disrupting interaction strength
effect of a mutation on the interaction (lrc4c_human LRRC4C): with no effect
effect of a mutation on the interaction (ergi3_human ERGIC3): with no effect
effect of a mutation on the interaction (amgo1_human AMIGO1): disrupting interaction strength
